Test results: paper PMC8223533

What was measured:
[1] = target: SctV (SsaV) of the Salmonella enterica serovar Typhimurium SPI-2 injectisome, full-length, C-terminal 6xHis (Salmonella enterica serovar Typhimurium (strain 12023)) (UniProt P74856); assay: cryo-EM 2D classification; amphipol A8-35-stabilised SctV on UltrAufoil gold grids without support film; 2D class averages only
[2] = target: SctV (SsaV) of the Salmonella enterica serovar Typhimurium SPI-2 injectisome, full-length, C-terminal 6xHis (Salmonella enterica serovar Typhimurium (strain 12023)) (UniProt P74856); assay: SEC; Superose 6 10/300, 50 mM Tris-HCl pH 8.0, 50 mM NaCl, 0.03% DDM, 5 mM DTT; DDM-solubilised SctV
[3] = target: SctV (SsaV) of the Salmonella enterica serovar Typhimurium SPI-2 injectisome, full-length, C-terminal 6xHis (Salmonella enterica serovar Typhimurium (strain 12023)) (UniProt P74856); assay: cryo-EM structure; DDM-solubilised full-length SctV at ~1 mg/ml on continuous carbon film; C9 symmetry imposed, refinement focused on the cytoplasmic domain; buffer pH 8.0
[4] = target: SctV (SsaV) of the Salmonella enterica serovar Typhimurium SPI-2 injectisome, full-length, C-terminal 6xHis (Salmonella enterica serovar Typhimurium (strain 12023)) (UniProt P74856); assay: negative stain EM; purified SctV at about 0.05 mg/ml, 2% uranyl acetate, continuous carbon grids

Measured: stoichiometry N

SctV (SsaV) of the Salmonella enterica serovar Typhimurium SPI-2 injectisome, full-length, C-terminal 6xHis (from UniProt P74856 1-681) (natural protein)
9: all assays above
